# Measured values reported in the DeepSol protein solubility set.
# Assay: soluble on expression in E. coli; label from the status in PepcDB or PDB records
row,Sequence,soluble on expression in E. coli
1,MAGIAMKLAKDREAAEGLGSHERAIKYLNQDYETLRNECLEAGALFQDPAFPPVSHSLGFKELGPNSSKTYGIKWKRPTELLSNPQFIVDGATRTDICQGALGDSWLLAAIASLTLNETILHRVVPYGQSFQEGYAGIFHFQLWQFGEWVDVVVDDLLPTKDGKLVFVHSAQGNEFWSALLEKAYAKVNGSYEALSGGCTSEAFEDFTGGVTEWYDLQKAPSDLYQIILKALERGSLLGCSINISDIRDLEAITFKNLVRGHAYSVTDAKQVTYQGQRVNLIRMRNPWGEVEWKGPWSDNSYEWNKVDPYEREQLRVKMEDGEFWMSFRDFIREFTKLEICNLTPDALKSRTLRNWNTTFYEGTWRRGSTAGGCRNYPATFWVNPQFKIRLEEVDDADDYDSRESGCSFLLALMQKHRRRERRFGRDMETIGFAVYQVPRELAGQPVHLKRDFFLANASRAQSEHFINLREVSNRIRLPPGEYIVVPSTFEPNKEGDFLLRFFSEKKAGTQELDDQIQANLPDEKVLSEEEIDDNFKTLFSKLAGDDMEISVKELQTILNRIISKHKDLRTNGFSLESCRSMVNLMDRDGNGKLGLVEFNILWNRIRNYLTIFRKFDLDKSGSMSAYEMRMAIEAAGFKLPCQLHQVIVARFADDELIIDFDNFVRCLVRLEILFKIFKQLDPENTGTIQLDLISWLSFSVLGKLAAAIEHHHHHHMHYSNIEANESEEERQFRKLFVQLAGDDMEVSATELMNILNKVVTRHPDLKTDGFGIDTCRSMVAVMDSDTTGKLGFEEFKYLWNNIKKWQGIYKRFETDRSGTIGSNELPGAFEAAGFHLNQHIYSMIIRRYSDETGNMDFDNFISCLVRLDAMFRAFRSLDKNGTGQIQVNIQEWLQLTMYS,soluble
2,SLEEYHKWYYGNLVWTKTTYMGINCWKSVSDMWNYQEILSELQPSLVIEFGTRYGGSAVYFANIMRQIGQPFKVLTVDNSHKALDPRARREPDVLFVESSSTDPAIAEQIQRLKNEYPGKIFAILDSDHSMNHVLAEMKLLRPLLSAGDYLVVEDSNINGHPVLPGFGPGPYEAIEAYEDEFPNDYKHDAERENKFGWTSAPNGFLIRN,soluble
3,MTSEQYSVKLTPDFDNPKWIGRHKHMFNFLDVNHNGRISLDEMVYKASDIVINNLGATPEQAKRHKDAVEAFFGGAGMKYGVETEWPEYIEGWKRLASEELKRYSKNQITLIRLWGDALFDIIDKDQNGAISLDEWKAYTKSDGIIQSSEDCEETFRVCDIDESGQLDVDEMTRQHLGFWYTMDPACEKLYGGAVP,soluble
4,MSKIYVLDTNVLLQDPNAIFSFEENEVVIPAVVLEEVDSKKRYMDEVGRNARHVSKLIDALRQKGRLHEHVPLDTGGTLRIELNHRSFHQLQEIFIEKTNDNRILAVAKNLSLEEETKENGRPVILVSKDVLVRVKADAIGLLAEDFLNDRVVDNDEMY,not soluble
5,MSLNRVFIVDDDTLTCNLLKTIVEPIFGNVEAFQHPRAFLTLSLNKQDIIILDLMMPDMDGIEVIRHLAEHKSPASLILISGYDSGVLHSAETLALSCGLNVINTFTKPINTEVLTCFLTSLSNRQAQRELVSFNNDKANQGKFDFIPTEQDLREAIDKKQLILYYQPQINMKTECLHGAEVLVRWLHPEFGLIYPDKFIALAEQTGLIEQLSEEVIHLAIKQSVHWQKLNRATRLSINISAQNITSLKLPEQLRMLVKKYEIDPSMIVLELTESALMDSEVTSLDIFTRFRLKGFQLSIDDFGTGYSSLSQLHKIPFTELKIDQSFVTNMKQEKESMAIVETCIMLAHKLNMEAVAEGIEDKETWDLLSAEGCDIAQGYYIARPMPADQFDKWQFNEGHHHHHH,soluble
6,MMRTVQLRTLRPCIRAQQQPVRPSTSATAAAATAPAPARKCPSSLFAKLGGREAVEAAVDKFYNKIVADPTVSTYFSNTDMKVQRSKQFAFLAYALGGASEWKGKDMRTAHKDLVPHLSDVHFQAVARHLSDTLTELGVPPEDITDAMAVVASTRTEVLNMPQQ,soluble
7,MSLENYQFPKDFLWGGAIAANQAEGAFKVDGKGISLADLHKYHKGKTNDEISEEQHKGVSLADIKASMEDKVNYYPKRHGIDFYHTYPEDLALLAEMGFKTFRTSLDWTRIFPTGEETEPNEAGLKYYDQLIDKIIELGMEPIITILHYETPVEIVLNNGGWHNRKVIDLFEKYGKTVLDRYNKKVKYWIVINQINLIQFEPFNSTAIPYDAVDDYLSATYQAVHNQFVASAKIYEYGKALNPDLMIGTMLADCTAYPFSCDPDDIVLAMKRNRMEYFFADVQFQGEYPQYALNYFDENNIHIEITEDDKAVLQKNTMDYLALSYYYSQMVDSKKNDLDPASITPNPHLKANPWGWAVDPKGLYNALSQYWDRYHKPIIIAENGFGMYDKLENGEIHDDYRIDYLSAHLKEMKRAMYDGVEIIAYCAWGPIDIVSCSSAQMEKRYGFIYVDLDNEGNGTGKRIKKDSFSWYKKVIESNGEDLEKGIITITTDPNSSSVDKLAAALEHHHHHH,soluble
8,MGSDKIHHHHHHMSENHWENQPGTPPDVTPECGQESDGERLYLWRQIVHWRSGTGGSQCNPLIELDKQNHWSVMNGGATGASGWLLVPTDRKKGIECRDIWTHRDPNYWNAAWGYVRSPYGSPTTTGLGINSKDKRTQDQLHIHIATFQSDAKTYLDARSPSEIATTPGDWAKKLLTVPSDSKPGQVYRVLHVKDLATDNLFNLLQSNVVSSDQMGNQTMIVIPAKSGGFYVLNSDISLSQGAAFGTGTCNHLLKCS,not soluble
9,MKTVRESTTLYNFLGSHNPYWRLTESSDVLRFSTTETTEPDRTLQLSAEQAARIREMTVITSSLMMSLTVDESDLSVHLVGRKINKREWAGNASAWHDTPAVARDLSHGLSFAEQVVSEAHSAIVILDSRGNIQRFNRLCEDYTGLKEHDVIGQSVFKLFMSRREAAASRRNNRVFFRSGNAYEVELWIPTCKGQRLFLFRNKFVHSGSGKNEIFLICSGTDITEERRAQERLRILANTDSITGLPNRNAMQDLIDHAINHADNNKVGVVYLDLDNFKKVNDAYGHLFGDQLLRDVSLAILSCLEHDQVLARPGGDEFLVLASNTSQSALEAMASRILTRLRLPFRIGLIEVYTSCSVGIALSPEHGSDSTAIIRHADTAMYTAKEGGRGQFCVFTPEMNQRVFEYLWLDTNLRKALENDQLVIHYQPKITWRGEVRSLEALVRWQSPERGLIPPLDFISYAEESGLIVPLGRWVILDVVRQVAKWRDKGINLRVAVNISARQLADQTIFTALKQVLQELNFEYCPIDVELTESCLIENDELALSVIQQFSQLGAQVHLDDFGTGYSSLSQLARFPIDAIKLDQVFVRDIHKQPVSQSLVRAIVAVAQALNLQVIAEGVESAKEDAFLTKNGINERQGFLFAKPMPAVAFERWYKRYLKRA,not soluble
10,MAVQFEFYKNPVQGEEEGETSYHPRVVNFQHVTTQRLAVEIHSATTFGKAEVEAMLMELSRCMGNHLREGQRVHLDGVGYFQITLQATEPIHSMAAHADKVKFKSVSFLADRDLKGELIGMHAQRSKYKPHSATLSQEEIDKKLTGYFATHTVLTRSDMQSLCQFTHSMAARHIRRLKEEGSLQNIGIRTQPIYVPCPGHYGK,not soluble
11,AHHHHHHGSILLLTGMPGSGKGVVAREFEKRGIPVVSMGDAIREEAEKRGIPKTPEGLKEVSLKVREELGPGAVAILTVPKVRKLLELNPVVVVEGVRSPYEVEEFRKEFKNEEIKVVAIHSSPKSRFQRLLKRQRSDDPKTWEEFVERDRKELNFGIGEVIALADYIIVNECGFDQLKANIEKLISMIFDGKI,soluble
12,GPHSLRYFVTAVSRPGLGEPRFIAVGYVDDTQFVRFDSDADNPRFEPRAPWMEQEGPEYWEEQTQRAKSDEQWFRVSLRTAQRYYNQSKGGSHTFQRMFGCDVGSDWRLLRGYQQFAYDGRDYIALNEDLKTWTAADTAALITRRKWEQAGDAEYYRAYLEGECVEWLRRYLELGNETLLRTDSPKAHVTYHPRSQVDVTLRCWALGFYPADITLTWQLNGEDLTQDMELVETRPAGDGTFQKWAAVVVPLGKEQNYTCHVHHKGLPEPLTLRWKLPPSTVSN,soluble
13,MARGLNRVFLIGALATRPDMRYTPAGLAILDLTLAGQDLLLSDNGGEREVSWYHRVRLLGRQAEMWGDLLDQGQLVFVEGRLEYRQWEREGERRSELQIRADFLDPLDDRGKERAEDSRGQPRLRAALNQVFLMGNLTRDPELRYTPQGTAVARLGLAVNERRQGAEERTHFVEVQAWRDLAEWAAELRKGDGLFVIGRLVNDSWTSSSGERRFQTRVEALRLERPTRGPAQAGGSRSREVQTGGVDIDEGLEDFPPEEELPF,soluble
